Measurements from patent US20200172619A1.
Like-named read-outs stand apart in the source and are kept apart here.

Legend:
[1] = target: human TNFR1-Fc fusion protein (human) (UniProt P19438); test: ELISA, human TNFR1-Fc
[2] = target: TNFR1 on the surface of cells (HT1080, HeLa, Kym-1) (human) (UniProt P19438); test: cell-based or functional assay
[3] = target: TNFR1 on the surface of cells (HT1080, HeLa, Kym-1) (human) (UniProt P19438); test: cell-based or functional assay; remark: listed apart in the source
[4] = target: human TNFR1-Fc fusion protein (human) (UniProt P19438); test: ELISA, immobilized human TNFR1-Fc

Chain of TNFR1 on the surface of cells (HT1080, HeLa, Kym-1) (human) (P19438 30-455): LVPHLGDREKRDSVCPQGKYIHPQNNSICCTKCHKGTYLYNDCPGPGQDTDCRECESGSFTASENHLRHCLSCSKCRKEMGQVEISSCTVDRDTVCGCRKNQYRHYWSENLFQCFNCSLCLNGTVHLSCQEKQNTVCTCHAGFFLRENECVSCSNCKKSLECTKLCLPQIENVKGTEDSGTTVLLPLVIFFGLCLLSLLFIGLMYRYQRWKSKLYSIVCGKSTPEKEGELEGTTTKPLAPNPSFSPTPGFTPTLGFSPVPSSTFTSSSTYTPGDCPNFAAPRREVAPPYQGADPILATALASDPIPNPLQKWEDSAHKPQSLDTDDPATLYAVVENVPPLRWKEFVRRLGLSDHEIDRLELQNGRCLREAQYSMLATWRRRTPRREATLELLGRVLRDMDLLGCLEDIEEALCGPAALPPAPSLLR
Chain of human TNFR1-Fc fusion protein (human) (P19438 30-211): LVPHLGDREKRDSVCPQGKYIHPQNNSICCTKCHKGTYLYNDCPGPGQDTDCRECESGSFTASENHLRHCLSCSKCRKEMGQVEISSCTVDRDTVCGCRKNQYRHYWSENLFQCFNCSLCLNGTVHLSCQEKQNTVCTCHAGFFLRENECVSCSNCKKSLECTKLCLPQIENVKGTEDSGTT

EC50 [1]: 0.09 nM
IC50, IL-6 [nM] (HeLa cells, 0.1 nM TNF) [2]: 165 nM
IC50, IL-8 [nM] (HT1080 cells, 0.1 nM TNF) [2]: 84.1 nM
IL-8 Inhibition IC50 [2]: 97.8 nM
IL-8 Inhibition IC50 [3]: 136 nM
EC50 [4]: 0.4 nM
Substance: ATROSAB (antibody)
IC50, Cell death induction [nM] (Kym-1 cells, 0.01 nM TNF) [2]: 64.4 nM
